Measurements from US6972319B1, “Pituitary adenylate cyclase activating peptide (PACAP)receptor 3 (R3) agonists and their pharmacological methods of use” (priority 1999, dated 2005).
Non-standard residues stand in square brackets, D forms with d. No end group written: not given here. Nle = CCCC[C@H](N)C(=O)O

T1: PACAP-R3 (Homo sapiens, UniProt P41587)
T1 sequence (P41587 24-438): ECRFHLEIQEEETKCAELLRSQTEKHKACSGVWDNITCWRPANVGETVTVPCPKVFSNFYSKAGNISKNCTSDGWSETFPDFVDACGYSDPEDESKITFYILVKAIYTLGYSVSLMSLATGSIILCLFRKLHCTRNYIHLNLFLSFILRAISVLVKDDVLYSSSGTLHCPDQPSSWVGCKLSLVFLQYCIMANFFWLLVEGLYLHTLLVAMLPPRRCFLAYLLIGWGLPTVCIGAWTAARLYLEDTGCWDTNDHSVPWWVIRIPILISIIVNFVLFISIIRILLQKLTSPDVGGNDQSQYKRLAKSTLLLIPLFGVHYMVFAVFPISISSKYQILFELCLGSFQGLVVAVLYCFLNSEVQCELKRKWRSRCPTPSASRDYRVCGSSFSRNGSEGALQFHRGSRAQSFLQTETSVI

T2: PACAP-R3 (human, UniProt P41587 24-438)
T2 sequence (looked up): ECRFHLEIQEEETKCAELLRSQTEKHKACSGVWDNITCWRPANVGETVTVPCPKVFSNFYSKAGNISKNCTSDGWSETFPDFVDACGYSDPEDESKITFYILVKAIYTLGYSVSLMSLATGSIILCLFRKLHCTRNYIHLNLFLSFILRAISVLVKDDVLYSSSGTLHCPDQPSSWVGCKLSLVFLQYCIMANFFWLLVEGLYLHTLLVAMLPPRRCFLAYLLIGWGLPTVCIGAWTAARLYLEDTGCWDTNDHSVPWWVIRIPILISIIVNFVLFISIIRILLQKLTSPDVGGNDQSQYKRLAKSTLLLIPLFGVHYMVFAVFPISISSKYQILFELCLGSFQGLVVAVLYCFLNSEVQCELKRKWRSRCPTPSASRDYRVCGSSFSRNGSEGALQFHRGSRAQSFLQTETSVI


Legend:
[1] = target: T1, PACAP-R3; experiment: Cyclic AMP SPA on CHO cells expressing PACAP R3; assay type: cell-based; design: expressed in transfected cells; host or cells: CHO cells (Geneticin selection); details: for EC50: cAMP SPA, CHO cells transfected with PACAP-R3, concentration at which 50% of maximum PACAP27 activity is achieved, NA = no detectable activities, read-out: R3 EC50; for R3 Selectivity: ratio of EC50 at R2 versus EC50 at R3
Description: CHO cells expressing the PACAP R3 were plated in 96-well plates (Costar) at 8×10^4 cell/well and grown at 37 C. for 24 hours in α MEM+nucleosides+glutamine (Giobco BRL), 10% FBS, 100 μg/ml Pen/Strep, 0.3 mg/ml glutamine, 1 mM HEPES, 0.5 mg/ml Geneticin (Gibco BRL). The media was removed and the plates were washed with PBS. The cells were incubated with a peptide, in Hepes-PBS-BSA with 0.4 mg/mlSoybean Trypsin Inhibitor, 0.5 mg/ml Bacitracin, 100 uM IBMX, for 15 min at 37 C. Cyclic AMP in the cell extracts was quantitated using the cAMP SPA direct screening assay system (Amersham Pharmacia Biotech Inc, Piscataway, N.J.,). The peptides shown in Table 3 were assayed for cAMP activity.
EC50 is defined as the concentration of the polypeptide at which 50% of maximum PACAP27 activity is achieved. “NA” denotes no detectable activities. “R3 Selectivity” is derived from the ratio of EC50 at R2 versus EC50 at R3.

[2] = target: T2, PACAP-R3; experiment: cell-based or functional assay

Molecule	EC50 [1] [pM]	R3 Selectivity [1]	R3 EC50 [2] [pM]	R3 Selectivity [2]
CC[C@H](C)[C@H](NC(=O)CNC(=O)[C@H](CC(=O)O)NC(=O)[C@H](CO)NC(=O)[C@@H](N)Cc1c[nH]cn1)C(=O)N[C@@H](Cc1ccccc1)C(=O)N[C@H](C(=O)N[C@@H](CC(=O)O)C(=O)N[C@@H](CO)C(=O)N[C@@H](Cc1ccc(O)cc1)C(=O)N[C@@H](CO)C(=O)N[C@@H](CCCNC(=N)N)C(=O)N[C@@H](Cc1ccc(O)cc1)C(=O)N[C@@H](CCCNC(=N)N)C(=O)N[C@@H](CCCCN)C(=O)N[C@@H](CCC(N)=O)C(=O)N[C@@H](CC(C)C)C(=O)N[C@@H](C)C(=O)N[C@H](C(=O)N[C@@H](CCCCN)C(=O)N[C@@H](CCCCN)C(=O)N[C@@H](Cc1ccc(O)cc1)C(=O)N[C@@H](CC(C)C)C(=O)N[C@@H](C)C(=O)N[C@@H](C)C(=O)N[C@H](C(=O)N[C@@H](CCCCN)C(=O)N[C@@H](CCCCN)C(=O)O)C(C)C)C(C)C)[C@@H](C)O [Peptide R3P39]	500			
CC[C@H](C)[C@H](NC(=O)[C@H](CO)NC(=O)[C@H](CC(N)=O)NC(=O)[C@H](CC(C)C)NC(=O)[C@H](Cc1ccc(O)cc1)NC(=O)[C@H](CCCCN)NC(=O)[C@H](CCCCN)NC(=O)[C@H](CO)NC(=O)[C@H](C)NC(=O)[C@H](CCSC)NC(=O)[C@H](CCC(N)=O)NC(=O)[C@H](CCCCN)NC(=O)[C@H](CCCNC(=N)N)NC(=O)[C@H](CC(C)C)NC(=O)[C@H](CCCNC(=N)N)NC(=O)[C@@H](NC(=O)[C@H](Cc1ccc(O)cc1)NC(=O)[C@H](CC(N)=O)NC(=O)[C@H](CC(=O)O)NC(=O)[C@@H](NC(=O)[C@H](Cc1ccccc1)NC(=O)[C@@H](NC(=O)[C@H](C)NC(=O)[C@H](CC(=O)O)NC(=O)[C@H](CO)NC(=O)[C@@H](N)Cc1c[nH]cn1)C(C)C)[C@@H](C)O)[C@@H](C)O)C(=O)N[C@@H](CCCCN)C(=O)N[C@@H](CC(N)=O)C(=O)N[C@@H](CCCCN)C(=O)N[C@@H](CCCNC(=N)N)C(=O)O [Peptide R3P111]	3000			
H-HSDAVFTDNYTRLRKQMAAKKYLNSIGNKR-OH [Peptide R3P121]	1000	50		
CC[C@H](C)[C@H](NC(=O)CNC(=O)[C@H](CC(=O)O)NC(=O)[C@H](CO)NC(=O)[C@@H](N)Cc1c[nH]cn1)C(=O)N[C@@H](Cc1ccccc1)C(=O)N[C@H](C(=O)N[C@@H](CC(=O)O)C(=O)N[C@@H](CO)C(=O)N[C@@H](Cc1ccc(O)cc1)C(=O)N[C@@H](CO)C(=O)N[C@@H](CCCNC(=N)N)C(=O)N[C@@H](Cc1ccc(O)cc1)C(=O)N[C@@H](CCCNC(=N)N)C(=O)N[C@@H](CCCCN)C(=O)N[C@@H](CCC(N)=O)C(=O)N[C@@H](CCSC)C(=O)N[C@@H](C)C(=O)N[C@H](C(=O)N[C@@H](CCCCN)C(=O)N[C@@H](CCCCN)C(=O)N[C@@H](Cc1ccc(O)cc1)C(=O)N[C@@H](CC(C)C)C(=O)N[C@@H](C)C(=O)N[C@@H](C)C(=O)N[C@H](C(=O)N[C@@H](CCCCN)C(=O)N[C@@H](CCCCN)C(=O)O)C(C)C)C(C)C)[C@@H](C)O [Peptide R3P40]	700			
H-HSDAVFTDNYTRLRKQMAGKKYLNSIQNRI-OH [rR3P185]	4500	40		
CSCC[C@H](NC(=O)[C@H](CCC(N)=O)NC(=O)[C@H](CCCCN)NC(=O)[C@H](CCCNC(=N)N)NC(=O)[C@H](Cc1ccc(O)cc1)NC(=O)[C@H](CCCNC(=N)N)NC(=O)[C@H](CO)NC(=O)[C@H](Cc1ccc(O)cc1)NC(=O)[C@H](CO)NC(=O)[C@H](CC(=O)O)NC(=O)[C@@H](NC(=O)[C@H](Cc1ccccc1)NC(=O)[C@H](CCCCN)NC(=O)CNC(=O)[C@H](CC(=O)O)NC(=O)[C@H](CO)NC(=O)[C@@H](N)Cc1c[nH]cn1)[C@@H](C)O)C(=O)N[C@@H](C)C(=O)N[C@H](C(=O)N[C@@H](CCCCN)C(=O)N[C@@H](CCCCN)C(=O)N[C@@H](Cc1ccc(O)cc1)C(=O)N[C@@H](CC(C)C)C(=O)N[C@@H](C)C(=O)N[C@@H](C)C(=O)N[C@H](C(=O)N[C@@H](CC(C)C)C(N)=O)C(C)C)C(C)C [PAC5]	700			
HSDAVFTDNYTRLRKQMAQKKYLNSIKNKR [Peptide R3P109]	10000	100		
HSDGIFTDSYSRYRKQLAAKKYLADVKK [Peptide R3P38]		7		
H-HSDAVFTDNYTRLRKQLAVKKYLNDIKKGGT-OH [Peptide R3P21]	300	60		
CC[C@H](C)[C@H](NC(=O)[C@H](CO)NC(=O)[C@H](CC(N)=O)NC(=O)[C@H](CC(C)C)NC(=O)[C@H](Cc1ccc(O)cc1)NC(=O)[C@H](CCCCN)NC(=O)[C@H](CCCCN)NC(=O)[C@H](CC(C)C)NC(=O)[C@H](C)NC(=O)[C@H](CCSC)NC(=O)[C@H](CCC(N)=O)NC(=O)[C@H](CCCCN)NC(=O)[C@H](CCCNC(=N)N)NC(=O)[C@H](CC(C)C)NC(=O)[C@H](CCCNC(=N)N)NC(=O)[C@@H](NC(=O)[C@H](Cc1ccc(O)cc1)NC(=O)[C@H](CC(N)=O)NC(=O)[C@H](CC(=O)O)NC(=O)[C@@H](NC(=O)[C@H](Cc1ccccc1)NC(=O)[C@@H](NC(=O)[C@H](C)NC(=O)[C@H](CC(=O)O)NC(=O)[C@H](CO)NC(=O)[C@@H](N)Cc1c[nH]cn1)C(C)C)[C@@H](C)O)[C@@H](C)O)C(=O)N[C@@H](CCCCN)C(=O)N[C@@H](CC(N)=O)C(=O)N[C@@H](CCCCN)C(=O)N[C@@H](CCCNC(=N)N)C(=O)O [Peptide R3P105]	300			
HSDAVFTDNYTRLRKQMAVKKYLNDILN [R3P48]			130	8
HSDAVFTDNYTRLRKQLAVKKYLNSILN [R3P46]			60	7
HSDAVFTDNYTRLRKQMAAKKYLNSIKKKRY [R3P52]			400	> 250
HSDAVFTDNYTRLRKQMAAKKYLNSIKN [R3P49]			270	30
HSDAVFTDNYTRLRKQMAAKKYLNSIKK [R3P51]			260	90
Ac-HSDAVFTENYTKLRKQLAAKKYLNDLKKGGT-NH2 [R3P1]			2000	> 50
HSDAVFTDNYTRLRKQMAAKKYLNSILN [R3P47]			120	6
HSDAVFTDNYTRLRKQMAAKKYLNSILK [R3P50]			130	6
Ac-HSDAVFTENYTKLRKQ[Nle]AAKKYLNDLKKGGT-NH2 [R3P0]			400	> 250
